This data set deals with T1, YneJ (Escherichia coli (K-12 strain not …, UniProt P77309 1-293)).
T1 sequence: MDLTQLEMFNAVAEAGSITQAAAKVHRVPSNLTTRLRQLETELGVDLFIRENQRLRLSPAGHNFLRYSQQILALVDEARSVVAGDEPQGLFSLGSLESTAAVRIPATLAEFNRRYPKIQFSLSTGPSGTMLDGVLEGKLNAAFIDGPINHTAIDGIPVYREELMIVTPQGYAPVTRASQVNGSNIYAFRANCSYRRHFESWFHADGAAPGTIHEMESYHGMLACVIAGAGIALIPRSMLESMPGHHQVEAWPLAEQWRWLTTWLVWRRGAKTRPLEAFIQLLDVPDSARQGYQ
Description: fluorescence polarization; 2 mM Gln; PBS (pH 6.5), 0.5 mM EDTA, 7 mM MgCl2, 100 mM KCl, 5 mM phosphate, herring sperm DNA, 50 C; 10 nM labeled dsDNA. Particulars: protein: recombinant; tags: N-terminal His6 (Methods; called YneJ-His6 in text); chain copies: 4; label: 6-FAM on S41 (printed at the 5' end; Methods say 3' end); blunt.

This note sets out measurements from PMC9283627, “Auxotrophic and prototrophic conditional genetic networks reveal the rewiring of transcription factors in Escherichia coli”.

B1: sad-yneJ consensus motif 21 bp (dsDNA)
DNA 1: GGGTTCTCGATTCGTGAAGGG
DNA 2: CCCTTCACGAATCGAGAACCC
In the case of B1, the binding result is “binds”.
